These results are taken from patent US20260055194A1 (LYCIA THERAPEUTICS, published 2026).

Like-named read-outs stand apart in the source and are kept apart here.

Assay [1] has as its target T1, Recombinant human M6PR ECD-His (human, UniProt P11717 41-2304).
T1 construct: extracellular domain; also called recombinant His-tagged human M6PR; human M6PR antigen; not shown: His tag
Put plainly: Octet BLI; mIgG from hybridoma supernatant on anti-mouse biosensor, His-tagged human M6PR analyte.

For assay [2], the target named is human CI-M6PR on K562 cells (human, UniProt P11717 41-2491). Put plainly: cell-based or functional assay.
Assay [3] deals with T2, purified recombinant CI-M6PR (domains 1-9) protein (human, UniProt P11717 41-1365, limits assumed).
T2 construct: domain: domains 1-9; also called human CI-M6PR; wild-type human CI-M6PR
Put plainly: BLI (GatorPrime), antibody on anti-mouse IgG Fc sensor, CI-M6PR (domains 1-9) in solution, global 1:1 fit.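 Also: human CI-M6PR tested at a range of concentrations against captured antibodies, measured at 30 °C, analyte diluted in PBS carrying Tween-20, BSA and NaN3.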

The target of assay [4] is T2, purified recombinant CI-M6PR (domains …). Put plainly: ELISA on human M6PR, Abs 450nm, antibody about 0.0005-1 ug/mL.
Assay [5] has the same target. The assay is described as above. This is another data set of the same source.
For assay [6] the target is unchanged. Described as above. This is another data set of the same source.
The target is the same in assay [7]. The description is as above. The source holds these as a separate data set.
Assay [8] has the same target. The description is as above. The source holds these as a separate data set.
The target is the same in assay [9]. Described as above. The source holds these as a separate data set.

B1: 11B12 (antibody, V domains shown)
VH: QVQLQQSGPELVKPGASVKISCKASGYSFTSYYIHWVKQRPGQGLEWIGWIYPGSGNTKYNEKFKGKATLTADTSSSTAYMQLSSLTSEDSAVYYCARGNWHWYFDVWGTGTTVTVSS
VL: EIVLTQSPALMAASPGEKVTITCSVSSSISSSNLHWYQQKSETSPKPWIYGTSNLASGVPVRFSGSGSGTSYSLTISSMEAEDAATYYCQQWSSYPLTFGAGTKLELK
notes: also called Clone # 75
Turning to B1, the dissociation constant Kd in assay [1] amounted to 90.6 nM. Further, the “Uptake pHrodo (MFI)” value in assay [2] was 43000 MFI. Moreover, in assay [3], the Kd was found to be 237 nM, the koff was determined as 0.0112 s⁻¹ and the association rate constant (kon) was 47400 M⁻¹ s⁻¹.

B2: 06D12 (antibody, V domains shown)
VH: QVQLQQSGAELMKPGASVKLSCKATGYTFTGYWIEWVKQRPGHGLEWIGEILPGSGSTNYNEKFKGKATFTADTSSNTAYMQLSSLTTEDSAIYYCAYTVVATDWYFDVWGTGTTVTVSS
VL: ENVLTQSPAIMSASLGEKVTMSCRASSSVNYMYWYQQKSDASPKLWIYYTSNLAPGVPARFSGSGSGNSYSLTISSMEGEDAATYYCQQFTSSPWTFGGGTKLEIK
notes: also called Clone # 10
With B2, the Kd in [1] is 9.56 nM. Further, the “Uptake pHrodo (MFI)” value in [2] is 47000 MFI.

B3: 12D5 (antibody, V domains shown)
VH: QVQLQQPGAELVKPGASVKLSCKASGYTFTNYWMHWVKQRPGQGLEWIGMIHPNSGSTNYNEKFKSKATLTVDKSSSTAYMQLSSLTSEDSAVYYCARPHGYPFGYWGQGTTLTVSS
VL: ENVLTQSPAIMSASLGEKVTMSCRASSSVNYMYWYQQKSDASPKLWIYYTSNLAPGVPARFSGSGSGNSYSLTISSMEGEDAATYYCQQFTSSPYTFGGGTKLEIK
notes: also called Clone # 26
On to B3, for which, in assay [4], the “EC50 (read off the curve)” value is roughly 0.01 µg/mL. Moreover, in [1], the Kd worked out at 12.2 nM. Further, in assay [2], the “Uptake pHrodo (MFI)” value was 35800 MFI. Besides, in assay [3], the equilibrium dissociation constant (Kd) was determined as 184 nM, the off-rate constant (koff) stood at 0.0123 s⁻¹ and the kon was 66700 M⁻¹ s⁻¹.

B4: 16H4 (antibody, V domains shown)
VH: QVQLKQSGPGLVQPSQSLSITCTASGFSLTSYGVHWVRQSPGKGLEWLGVIWSGGSTDYSAAFISRLSISKDSSKSQVFFKMNSLQADDTAIYYCARNLPITSYDPSSFYAMDYWGQGTSVTVSS
VL: DIQMTQTTSSLSASLGDRVTISCSASQGISNYLNWYQQKPDGTVKLLIYYTSSLHSGVPSRFSGSGSGTDYSLTISNLEPEDIATYYCQQYSKLPFTFGSGTKLEIK
notes: also called Clone # 95
Regarding B4, the Kd in [1] turned out to be 615 nM. The “Uptake pHrodo (MFI)” value in assay [2] was 13400 MFI.

B5: 17F11 (antibody, V domains shown)
VH: EVQLQQSGPELVKPGASVKMSCKASGYTFTDYNMHWVKQSHGKSLEWIGYINPNNGGTNYNQKFQGKATLTVNKSSRTAYMELRSLTSEDSAVYYCVRFYYGSRYYAMDYWGQGTSVTVSS
VL: DIVMTQSPATLSVTPGDRVSLSCRASQSISDYLHWYQQKSHESPRLLIKYASQSISGIPSRFSGSGSGSDFTLSINSVEPEDVGVYYCQNGHSFPYTFGGGTKLEIK
notes: also called Clone # 55
On to B5, for which the Kd in assay [1] stood at 10.5 nM. The 50% effective concentration (EC50 (read off the curve)) in assay [5] is roughly 0.01 µg/mL. Moreover, the “Uptake pHrodo (MFI)” value in assay [2] was determined as 12500 MFI. Moreover, in [3], the Kd was 10 nM, the koff was found to be 0.000454 s⁻¹ and the kon came out at 45300 M⁻¹ s⁻¹.

B6: 18G4 (antibody, V domains shown)
VH: EVKLMESGGGLVQPGASLRLSCAASGFTFTDYYMSWVRQPPGKAPEWLALIRNKANGYTTEYNASVKGRFTISRDNSQNILYLQMNTLRTEDSATYYCVRGGFAYWGQGTLVTVSA
VL: QAVVIQESALTTSPGETVTLTCRSSTGAVTTSHYAIWVQEKPDHLFTGLIGGTNNRVPGVPARFSGSLIADKAALTITGAQTEDEAIYFCALWYTNQFIFGSGTKVTVL
notes: also called Clone # 45
In the case of B6, the “EC50 (read off the curve)” value in assay [6] is roughly 0.01 µg/mL. Besides, in assay [1], the dissociation constant Kd is 8.74 nM. The “Uptake pHrodo (MFI)” value in assay [2] is 10400 MFI. Besides, in assay [3], the Kd is 13 nM, the off-rate (koff) came to 0.000616 s⁻¹ and the on-rate (kon) turned out to be 47200 M⁻¹ s⁻¹.

B7: 43C8 (antibody, V domains shown)
VH: EIQLQQSGPELVKPGASVKMSCKASGYTFTDYVISWVKQRTGQGLEWIGEIYPGSHTYYNEKFKGKATLTADKSSNTAYMQLSSLTSEDSAVYFCALTAGAMDYWGQGTSVTVSS
VL: NIMMTQSPSSLAVSAGEKVTMSCKSSQSVLYSSNQKNYLAWYQQKPGQSPKLLIYWASTRESGVPDRFTGSGSGTDFTLTISSVHAEDLAVYYCHQYLSSYTFGGGTKLEIK
notes: also called Clone # 28
On to B7, for which, in [1], the equilibrium dissociation constant (Kd) came to 5.27 nM. Also, in assay [7], the half-maximal effective concentration (EC50 (read off the curve)) is roughly 0.02 µg/mL. Besides, the “Uptake pHrodo (MFI)” value in [2] came to 30800 MFI. For the same molecule, in [3], the dissociation constant (Kd) stood at 6.33 nM, the koff was determined as 0.00104 s⁻¹ and the association rate constant (kon) was 164000 M⁻¹ s⁻¹.

B8: 45A12 (antibody, V domains shown)
VH: QVQLQQSGAELMKPGASVKISCKATGYTFSTYWIEWVKQRPGHGLEWIGEILPGSGSTNYNEKFKGKATFTADASSNTAYMQLSSLTSEDSAVYYCARDGGAMDYWGQGTSVTVSS
VL: NIMMTQSPSSLAVSAGEKVTMSCKSSQRVLYSSNQKNYLAWYQQKPGQSPKLLIYWASTRESGVPDRFTGSGSGTDFTLTISTVQPEDLAVYYCHQYLSSRTFGGGTKLEIK
notes: also called Clone # 36
Consider B8, for which, in assay [1], the Kd amounted to 30 nM. For the same molecule, in [8], the “EC50 (read off the curve)” value was roughly 0.01 µg/mL. Besides, in assay [2], the “Uptake pHrodo (MFI)” value turned out to be 36000 MFI. For the same molecule, in assay [3], the equilibrium dissociation constant (Kd) came out at 108 nM, the off-rate (koff) was 0.00872 s⁻¹ and the association rate constant (kon) turned out to be 81000 M⁻¹ s⁻¹.

B9: 53B11 (antibody, V domains shown)
VH: EVQLQQSGPELVKPGTSMKISCKASGYSFTDYTVNWVKQSHGKNLEWIGLINPYNGGTSYNQKFKGKATLTVDKSSSTAYMELLSLTSEDSAVYYCARWGYYYATSYYFAMDYWGQGTSVTVSS
VL: DIQMNQSPSSLSASLGDTITITCHASQNINVWLSWYQQKPGNIPKLLIYKASNLHTGVPSRFSGSGSGTGFTLTISSLQPEDIATYYCQQGQSYPWTFGGGTKLEIK
notes: also called Clone # 33
For the molecule B9, in [1], the Kd stood at 2.59 nM. Further, the “Uptake pHrodo (MFI)” value in [2] is 9700 MFI. In assay [3], the Kd was 3.44 nM, the koff amounted to 0.000445 s⁻¹ and the association rate constant (kon) was determined as 129000 M⁻¹ s⁻¹.

B10: 06F1 (antibody, V domains shown)
VH: EVQLQQSGAELVRPGASVKLSCTASGFNIKDDYMHWVKQRPEQGLEWIGWIDPENGDTEYASKFQGKATITADTSSNTAYLQLSSLTSEDTAVYYCTNYYGSSPFDYWGQGTTLTVSS
VL: QIVLTQSPAIMSAFLGERVTMTCTASSSVSSRYLHWYQQKPGSSPKLWIYSTSNLASGVPARFSGSGSGTSYSLTISSMEAEDAATYYCHQYHRSPLTFGAGTKLELK
notes: also called Clone # 67
In the case of B10, in [1], the Kd was 17.3 nM. In [2], the “Uptake pHrodo (MFI)” value was found to be 34200 MFI.

B11: 08D8 (antibody, V domains shown)
VH: QVQLQQPGAELVKPGASVKLSCKASGYTFTSYWMQWVKQRPGQGLEWIGEIDPSDSYTNYNQKFKGKATLTVDTSSSTAYMQLSSLTSEDSAVYYCARGDYYGSSSWFAYWGQGTLVTVSA
VL: DIVMTQAAPSVPVTPGESVSISCRSSKSLLHSNGNTYLYWFLQRPGQSPQLLIYRMSNLASGVPDRFSGSGSGTAFTLRISRVEAEDVGVYYCMQHLEYPFTFGAGTKLELK
notes: also called Clone # 84
For B11, the Kd in [1] is 259 nM. Besides, the “Uptake pHrodo (MFI)” value in assay [2] was determined as 10900 MFI. In assay [3], the dissociation constant (Kd) is 351 nM, the koff worked out at 0.00185 s⁻¹ and the on-rate constant (kon) worked out at 5250 M⁻¹ s⁻¹.

B12: 21D5 (antibody, V domains shown)
VH: QVQLKQSGPGLVQPSQSLSITCTVSGFSLTRYGVHWVRQSPGKGLEWLGVIWRGGSTDYNAAFMSRLSITKDNSKSQVFFKMNSLQADDTAIYYCAKEGTGILDSWGQGTTLTVSS
VL: DIVLTQSPASLAVSLGQRATISCRASKSVSTSGYSYMHWYQQKPGQPPTLLIYLASNLESGVPARFSGSGSGTDFTLNIHPVEEEDAATYYCQHSRELPYTFGGGTKLEIK
notes: also called Clone # 78
In the case of B12, the Kd in assay [1] turned out to be 43.1 nM. Besides, in assay [8], the “EC50 (read off the curve)” value was roughly 0.02 µg/mL. The “Uptake pHrodo (MFI)” value in [2] stood at 9980 MFI. Moreover, in [3], the Kd is 62.2 nM, the koff was 0.000789 s⁻¹ and the on-rate constant (kon) stood at 12700 M⁻¹ s⁻¹.

B13: 06D1 (antibody, V domains shown)
VH: EVQLQQSGAELVRPGASVKLSCTASGFNIKDDYMHWVKQRPEQGLEWIGWIDPENGDTEYASKFQGKATITADTSSNTAYLQLSSLTSEDTAVYYCTTVAPGYYAMDYWGQGTSVTVSS
VL: ENVLTQSPAIMSASPGEKVTMTCRASSSVSSSYLHWYQQKSGASPKLWIYSTSNLASGVPARFSGSGSGTSYSLTISSVEAEDAATYYCQQYSGFTFGSGTKLEIK
notes: also called Clone # 11
In the case of B13, in assay [9], the concentration for a half-maximal effect (EC50 (read off the curve)) is roughly 0.01 µg/mL. Moreover, the dissociation constant Kd in [1] was 17.1 nM. Besides, the “Uptake pHrodo (MFI)” value in assay [2] is 22400 MFI. In assay [3], the equilibrium dissociation constant (Kd) was 45.1 nM, the koff worked out at 0.0111 s⁻¹ and the association rate constant (kon) amounted to 245000 M⁻¹ s⁻¹.

B14: 06H10 (antibody, V domains shown)
VH: EVQLQQSGAELVRPGASVKLSCTASGFNIKDDYMHWVKQRPEQGLEWIGWIDPENGDTEYASKFQGKATITADTSSNTAYLQLSSLTSEDTAVYYCTTVAPYYYAMDYWGQGTSVTVSS
VL: QIVLTQSPAIMSASLGEEITLTCSASSSVSYMHWYQQKSGTSPKLLIYSTSNLASGVPSRFSGSGSGTFYSLTISSVEAEDAADYYCHQWSSYHTFGGGTKLEIK
For B14, in assay [2], the “Uptake pHrodo (MFI)” value turned out to be 65800 MFI.
